Where a chain is given by its changes, count along the chain named.
T1: Rat RGMa-His (rat) (UniProt D4A188)
T1 sequence: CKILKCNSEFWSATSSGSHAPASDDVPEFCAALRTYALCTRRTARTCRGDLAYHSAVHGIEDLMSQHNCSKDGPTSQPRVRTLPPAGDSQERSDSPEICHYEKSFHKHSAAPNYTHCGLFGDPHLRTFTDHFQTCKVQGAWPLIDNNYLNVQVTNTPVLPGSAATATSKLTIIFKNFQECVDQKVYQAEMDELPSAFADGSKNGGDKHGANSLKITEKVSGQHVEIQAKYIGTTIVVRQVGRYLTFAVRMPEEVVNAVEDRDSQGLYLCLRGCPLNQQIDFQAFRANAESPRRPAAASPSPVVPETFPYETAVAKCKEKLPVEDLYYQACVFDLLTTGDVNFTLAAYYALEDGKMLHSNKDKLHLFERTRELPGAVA

B1: AE12-1 (antibody, V domains shown)
VH: EVQLVQSGAEVKKPGASVKVSCKASGYTFTSHGISWVRQAPGQGLDWMGWISPYSGNTNYAQKLQGRVTMTTDTSTSTAYMELSSLRSEDTAVYYCARVGSGPYYYMDVWGQGTLVTVSS
VL: QSALTQPRSVSGSPGQSVTISCTGTSSSVGDSIYVSWYQQHPGKAPKLMLYDVTKRPSGVPDRFSGSKSGNTASLTISGLQAEDEADYYCCSYAGTDTLFGGGTKVTVL
B2: AE12-1-F (antibody, V domains shown)
VH: B1 VH
VL: B1 VL with C91F
B3: AE12-1-H (antibody, V domains shown)
VH: B1 VH
VL: B1 VL with C91H
B4: AE12-1-L (antibody, V domains shown)
VH: B1 VH
VL: B1 VL with C91L
B5: AE12-1-V (antibody, V domains shown)
VH: B1 VH
VL: B1 VL with C91V
B6: AE12-1-I (antibody, V domains shown)
VH: B1 VH
VL: B1 VL with C91I
B7: AE12-1-K (antibody, V domains shown)
VH: B1 VH
VL: B1 VL with C91K
B8: AE12-1-Y (antibody, V domains shown)
VH: B1 VH
VL: B1 VL with C91Y

target: T1, Rat RGMa-His (rat); experiment: BIAcore

Binder	Kd [nM]	koff [s⁻¹]	kon [M⁻¹ s⁻¹]
B1	19	0.00048	26000
B2	5.2	0.00014	26000
B3	8.6	0.00025	29000
B4	12	0.00039	32000
B5	15	0.00032	220000
B6	12	0.00032	28000
B7	17	0.00028	16000
B8	5	6.9e-05	14000
